From PMC4613707 come the findings set out here.

As usually defined, the stoichiometry N is a count of units in the complex or per binding partner.

For test [1], the target named is FLAG–TSP5 (human) (UniProt P49747). As to the kind of experiment: SDS/PAGE under non-reducing and reducing conditions with immunoblot; FLAG-tagged proteins immunoprecipitated with anti-FLAG M2 on rProtein G agarose from conditioned media of transfected COS7 cells, washed in Tris-buffered saline with 2 mM CaCl2, eluted by boiling in SDS sample buffer with or without 100 mM DTT; oligomers formed in the cells. (Immunoblotting shows a protein as a band on a membrane.)

Test [2] has as its target FLAG–mRFP–TSP-5-1C (human). Briefly: SDS/PAGE under non-reducing and reducing conditions with immunoblot; mRFP-tagged proteins collected with RFP-Trap_A beads from conditioned media of transfected COS7 cells, eluted by boiling in SDS sample buffer with or without 100 mM DTT; immunoblot for RFP (and FLAG, result not shown); oligomers formed in the cells.
In test [3] the target is FLAG–TSP-5-1C (human). Briefly: SDS/PAGE under non-reducing and reducing conditions with immunoblot; FLAG-tagged proteins immunoprecipitated with anti-FLAG M2 on rProtein G agarose from conditioned media of transfected COS7 cells, washed in Tris-buffered saline with 2 mM CaCl2, eluted by boiling in SDS sample buffer with or without 100 mM DTT; oligomers formed in the cells.

Sequence of FLAG–TSP5, P49747 21-757 (natural protein; other documents disagree on this pair) (P49747 21-757): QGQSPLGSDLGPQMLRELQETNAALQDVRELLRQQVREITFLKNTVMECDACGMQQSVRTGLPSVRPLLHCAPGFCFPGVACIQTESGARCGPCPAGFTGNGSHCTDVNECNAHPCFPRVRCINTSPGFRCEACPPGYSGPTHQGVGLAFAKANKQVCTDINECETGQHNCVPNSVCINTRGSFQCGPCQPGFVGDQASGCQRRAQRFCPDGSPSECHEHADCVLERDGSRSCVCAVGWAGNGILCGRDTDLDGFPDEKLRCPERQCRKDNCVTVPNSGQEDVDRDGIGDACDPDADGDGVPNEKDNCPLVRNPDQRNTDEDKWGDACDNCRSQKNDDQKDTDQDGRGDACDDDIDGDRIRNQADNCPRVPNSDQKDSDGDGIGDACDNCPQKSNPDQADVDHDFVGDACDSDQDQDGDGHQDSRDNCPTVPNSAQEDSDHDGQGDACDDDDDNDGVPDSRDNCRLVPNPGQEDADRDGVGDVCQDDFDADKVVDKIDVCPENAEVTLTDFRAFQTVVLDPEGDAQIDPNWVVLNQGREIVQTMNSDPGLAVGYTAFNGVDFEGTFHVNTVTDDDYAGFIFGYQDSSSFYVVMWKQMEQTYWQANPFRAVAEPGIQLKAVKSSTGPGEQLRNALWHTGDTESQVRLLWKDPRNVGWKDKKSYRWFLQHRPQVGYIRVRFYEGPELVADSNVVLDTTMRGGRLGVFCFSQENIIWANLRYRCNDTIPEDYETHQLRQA

The substance “FLAG–TSP5, P49747 21-757 (natural protein; other documents disagree on this pair)” came in with a stoichiometry N in test [1] of 5. In the case of FLAG–mRFP–TSP-5-1C, in test [2], the stoichiometry N is 5. For the substance FLAG–TSP-5-1C, the stoichiometry N in test [3] is 5.
